Measurements from article PMC9470164, “Membrane-mediated dimerization potentiates PIP5K lipid kinase activity” (eLife, 2022).

Experiments:
[1] = biological target: mouse PIP5KA, purified (mouse)
[2] = biological target: mouse PIP5KA (D92R), purified (mouse)
[3] = biological target: human PIP5KB (D51R), purified, unlabelled (human)
[4] = biological target: mNG-PIP5KB, recombinantly expressed and purified (human) (UniProt O14986)
[5] = biological target: mNG-PIP5KB, recombinantly expressed and purified (human) (UniProt O14986); assay: single-molecule TIRF molecular brightness, photobleaching and tracking on supported lipid bilayers; purified mNG kinases at 100 pM; equilibrium membrane binding at ~600 kinases per field of view (0.2 kinases/µm^2); particles with intensity ≥8200 A.U. counted as dimers; membrane 96% DOPC, 4% PI(4,5)P2
[6] = biological target: the molecule itself; assay: single-molecule TIRF molecular brightness on supported lipid bilayers; purified kinases labelled with Alexa488 by Sortase-mediated peptide ligation; membrane 96% DOPC, 4% PI(4,5)P2
[7] = biological target: the molecule itself; assay: single-molecule TIRF molecular brightness and photobleaching on supported lipid bilayers; mNG-tagged kinase in HEK293 cell lysate diluted ~10,000-fold to ~10 pM (legend: 1 pM mNG-PIP4KB, 5 pM mNG-PIP5K); low surface density ~0.03 molecules/µm^2; membrane 96% DOPC, 4% PI(4,5)P2; 23°C

mouse PIP5KA, purified (enzyme)
reaction half-time of PI(4,5)P2 production at 5, 2.5 and 1 nM kinase (28 s, 49 s, 90 s) [1]: 90 s

mouse PIP5KA (D92R), purified (enzyme)
reaction half-time of PI(4,5)P2 production at 5, 2.5 and 1 nM kinase (71 s, 139 s, 270 s) [2]: 270 s

human PIP5KB (D51R), purified, unlabelled (enzyme)
lipid kinase activity on supported lipid bilayers, reduction against wild-type PIP5KB [3]: 7 fold

mNG-PIP5KB, recombinantly expressed and purified (from UniProt O14986 1-540) (enzyme)
effective phosphorylation rate constant per membrane-bound kinase (after the transition from slow to fast kinetics) (lipids/µm^2•s per kinase) [4]: 0.0027
fold frequency of dimers against mNG-PIP5KB (D51R) [5]: 5 fold
stoichiometry N [5]: 2
time that dimers persist before photobleaching or dissociating [5]: 1 to 2 s

B1: Alexa488-labelled human PIP4KB (Ax488-PIP4KB), purified (enzyme)
chain: GGGGGMSSNCTSTTAVAVAPLSASKTKTKKKHFVCQKVKLFRASEPILSVLMWGVNHTINELSNVPVPVMLMPDDFKAYSKIKVDNHLFNKENLPSRFKFKEYCPMVFRNLRERFGIDDQDYQNSVTRSAPINSDSQGRCGTRFLTTYDRRFVIKTVSSEDVAEMHNILKKYHQFIVECHGNTLLPQFLGMYRLTVDGVETYMVVTRNVFSHRLTVHRKYDLKGSTVAREASDKEKAKDLPTFKDNDFLNEGQKLHVGEESKKNFLEKLKRDVEFLAQLKIMDYSLLVGIHDVDRAEQEEMEVEERAEDEECENDGVGGNLLCSYGTPPDSPGNLLSFPRFFGPGEFDPSVDVYAMKSHESSPKKEVYFMAIIDILTPYDTKKKAAHAAKTVKHGAGAEISTVNPEQYSKRFNEFMSNILT
modifications: Alexa488 on the N-terminal amine of the ligated LPETGG peptide
notes: glycine stretch of his6-SUMO3-GGGGG-PIP4K2B left after SenP2 cleavage; human PIP4K2B isoform 2, 1-416aa; Surmise: Sortase ligation leaves Alexa488-LPET joined to GGGGG-PIP4K2B; also called Alexa488-PIP4K; PIP4K2B; source: E. coli BL21(DE3) Star, purified (Co2+ HiTrap Chelating, Superdex 200), labelled by Sortase-mediated peptide ligation; not shown: His6, N-terminal, cleaved; SUMO3, N-terminal, …
binding result [6]: binds

B2: mNeonGreen-tagged human phosphatidylinositol 5-phosphate 4-kinase type-2 beta (mNG-PIP4KB) (enzyme, UniProt P78356 1-416, looked up)
chain: MSSNCTSTTAVAVAPLSASKTKTKKKHFVCQKVKLFRASEPILSVLMWGVNHTINELSNVPVPVMLMPDDFKAYSKIKVDNHLFNKENLPSRFKFKEYCPMVFRNLRERFGIDDQDYQNSVTRSAPINSDSQGRCGTRFLTTYDRRFVIKTVSSEDVAEMHNILKKYHQFIVECHGNTLLPQFLGMYRLTVDGVETYMVVTRNVFSHRLTVHRKYDLKGSTVAREASDKEKAKDLPTFKDNDFLNEGQKLHVGEESKKNFLEKLKRDVEFLAQLKIMDYSLLVGIHDVDRAEQEEMEVEERAEDEECENDGVGGNLLCSYGTPPDSPGNLLSFPRFFGPGEFDPSVDVYAMKSHESSPKKEVYFMAIIDILTPYDTKKKAAHAAKTVKHGAGAEISTVNPEQYSKRFNEFMSNILT
notes: human phosphatidylinositol 5-phosphate 4-kinase type-2 beta (PIP4KB, PIP4K2B); Lentiviral vector with SFFV promoter; also called hPIP4K2B; source: HEK293T, transiently transfected, in clarified cell lysate (diluted); not shown: mNeonGreen, N-terminal, kept
stoichiometry N [7]: 2
